We go through three substances from patent publication US20180256687A1.

Like-named read-outs stand apart in the source and are kept apart here.

Assay [1] deals with Protein tyrosine phosphatase receptor type gamma (PTPRG) (human) (UniProt P23470). The assay can be described thus: cell-based or functional assay.
Assay [2] concerns the target PTP Receptor type C (PTPRC or CD45) (human) (UniProt P08575). The experiment in a line: cell-based or functional assay.
In assay [3] the target is JAK2 (Janus protein-tyrosine kinase 2) (human) (UniProt O60674).
For assay [4] the target is unchanged. The assay can be described thus: negative-control pull-down on nickel gel; lysate of resting human monocytes; mean of 3 experiments.

Chain of PTP Receptor type C (PTPRC or CD45) (human) (P08575 26-1306 limits assumed): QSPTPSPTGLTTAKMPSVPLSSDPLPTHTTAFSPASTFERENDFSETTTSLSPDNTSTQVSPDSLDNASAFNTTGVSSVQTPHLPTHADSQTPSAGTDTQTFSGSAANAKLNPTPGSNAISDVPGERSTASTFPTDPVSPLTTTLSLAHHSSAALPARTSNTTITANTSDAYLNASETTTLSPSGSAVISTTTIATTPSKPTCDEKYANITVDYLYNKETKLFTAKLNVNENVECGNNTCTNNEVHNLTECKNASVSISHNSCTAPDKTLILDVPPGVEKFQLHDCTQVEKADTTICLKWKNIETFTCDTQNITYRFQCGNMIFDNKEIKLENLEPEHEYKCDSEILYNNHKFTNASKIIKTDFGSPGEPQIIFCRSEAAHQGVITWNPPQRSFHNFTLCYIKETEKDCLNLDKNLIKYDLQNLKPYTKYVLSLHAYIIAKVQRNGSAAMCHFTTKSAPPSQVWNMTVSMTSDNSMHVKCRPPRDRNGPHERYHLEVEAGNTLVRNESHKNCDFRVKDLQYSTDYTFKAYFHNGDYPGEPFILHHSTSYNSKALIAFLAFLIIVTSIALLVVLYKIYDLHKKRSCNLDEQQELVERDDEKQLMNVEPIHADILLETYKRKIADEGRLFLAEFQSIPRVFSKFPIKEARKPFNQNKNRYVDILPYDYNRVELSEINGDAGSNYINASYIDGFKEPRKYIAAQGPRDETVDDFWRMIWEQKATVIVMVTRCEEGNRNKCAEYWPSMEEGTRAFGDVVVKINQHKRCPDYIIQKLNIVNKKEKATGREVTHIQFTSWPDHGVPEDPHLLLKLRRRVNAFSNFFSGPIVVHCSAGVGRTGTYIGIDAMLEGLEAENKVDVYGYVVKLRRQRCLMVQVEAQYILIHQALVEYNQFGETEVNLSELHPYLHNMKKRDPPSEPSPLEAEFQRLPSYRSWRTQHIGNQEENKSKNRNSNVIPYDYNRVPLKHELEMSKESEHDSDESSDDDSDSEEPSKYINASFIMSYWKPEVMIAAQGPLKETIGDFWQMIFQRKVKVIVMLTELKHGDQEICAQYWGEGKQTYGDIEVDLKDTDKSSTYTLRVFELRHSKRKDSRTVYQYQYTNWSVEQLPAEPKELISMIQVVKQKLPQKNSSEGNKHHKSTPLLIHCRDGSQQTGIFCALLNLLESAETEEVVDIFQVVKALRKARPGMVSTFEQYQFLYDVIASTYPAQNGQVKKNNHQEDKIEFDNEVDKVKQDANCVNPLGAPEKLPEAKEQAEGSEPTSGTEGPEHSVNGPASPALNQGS

P1 (Penetratin 1) control peptide gave a phosphatase activity (pNPP, absorbance at 405 nm, percent fold increase over the blank) in monocyte membrane fractions, P1 control (percent fold increase over the blank) in assay [1] of 16.
In assay [2], “P1-WD Trojan peptide (Penetratin fused to the PTPRG wedge domain)” returned a phosphatase activity (pNPP, absorbance at 405 nm, percent fold increase over the blank) in PMN membrane fractions, P1-WD 50 micromolar (percent fold increase over the blank) of 5.15; a phosphatase activity (pNPP, absorbance at 405 nm, percent fold increase over the blank) in PMN membrane fractions, P1-WD 100 micromolar (percent fold increase over the blank) of 8.54; a phosphatase activity (pNPP, absorbance at 405 nm, percent fold increase over the blank) in PMN membrane fractions, P1-WD 200 micromolar (percent fold increase over the blank) of 12.9. Moreover, in assay [1], the phosphatase activity (pNPP, absorbance at 405 nm, percent fold increase over the blank) in monocyte membrane fractions, P1-WD 50 micromolar (percent fold increase over the blank) is 34.6; the phosphatase activity (pNPP, absorbance at 405 nm, percent fold increase over the blank) in monocyte membrane fractions, P1-WD 100 micromolar (percent fold increase over the blank) was determined as 86.7; the phosphatase activity (pNPP, absorbance at 405 nm, percent fold increase over the blank) in monocyte membrane fractions, P1-WD 200 micromolar (percent fold increase over the blank) was 109.
As for TAT-eGFP, the JAK2 band (anti-JAK2 Western blot of pull-down), mean was determined as 1.5 in assay [3] and 4.4 in assay [4].
